For assay [1], the target named is T1, human 2IgB7H3 (Homo sapiens, UniProt Q5ZPR3).
T1 construct: His tag; purchased ACRO (ACROBiosystems) B73-H52E2
T1 sequence (Q5ZPR3 29-316 isoform Q5ZPR3-2 limits assumed): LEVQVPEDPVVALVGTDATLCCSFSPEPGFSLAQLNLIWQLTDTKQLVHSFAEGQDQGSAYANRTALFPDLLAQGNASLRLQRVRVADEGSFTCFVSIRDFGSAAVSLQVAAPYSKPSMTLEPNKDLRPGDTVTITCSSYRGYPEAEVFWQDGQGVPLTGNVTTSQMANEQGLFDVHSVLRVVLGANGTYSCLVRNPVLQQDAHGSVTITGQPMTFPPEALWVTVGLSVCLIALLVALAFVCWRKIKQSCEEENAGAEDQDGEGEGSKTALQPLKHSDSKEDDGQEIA
Briefly: SPR binding affinity for human 2IgB7H3 (Biacore 8K). Conditions: analyte human 2IgB7H3. The protocol: (§1) The affinity of antibodies for human 2IgB7H3 was determined using surface plasmon resonance (SPR). The affinity of antibodies for human 2IgB7H3 was determined by Biacore 8K. An activator was prepared by mixing 400 mM EDC and 100 mM NHS (GE) immediately prior to injection into the channel. The CM5 sensor chip was activated for 420 seconds with the activator. Goat anti-human Fc IgG (30 μg/mL in 10 mM NaAc, pH 4.5) was then injected into the channel at a flow rate of 10 μL/min for 420 seconds. The chip was deactivated by 1 M ethanolamine hydrochloric acid. The antibodies diluted in running buffer (1×HBS-EP+) were injected into the channel at a flow rate of 10 μL/min for 30 seconds. Seven concentrations (500 nM, 250 nM, 125 nM, 62.5 nM, 31.25 nM, 15.625 nM, and 7.813 nM) of analyte human 2IgB7H3 were injected sequentially into the channel at a flow rate of 30 μL/min for an association phase of 120 seconds, followed by dissociation of 300 seconds. Glycine (10 mM, pH 1.5) was injected as regeneration buffer after the dissociation phase.
The sensorgrams for the reference channel and the buffer channel were subtracted from the test sensorgrams. The experimental data were fitted with a 1:1 binding model. The molecular weight of the human 2IgB7H3 used in the calculation was 25.2 kDa.
(§2) The experimental data were fitted by a 1:1 binding model bundled with the Biacore 8K evaluation software.

The test system of assay [2] is MCF-7 cells expressing human full-length B7H3. Nature of the assay: Internalization test (HCS) on MCF-7. Format: cell-based. Conditions: MCF-7, HCS. On the procedure:
Antibody internalization was determined by operetta CLS (PerkinElmer), a high-content imaging and analysis system that can collect and analyze images of samples at high speed and high sensitivity. MCF-7 cells expressing human full-length B7H3 (1.5×10^4 cells/well) were seeded into a 96-well clear bottom black plate pre-coated with 8 μg/mL poly-D-lysine. After incubation in an incubator set to 37° C., 5% CO2 overnight, various concentrations of the antibodies (3.16-fold serially diluted with 1×DPBS/1% BSA from 50 nM to 0.0005 nM) were incubated in a volume of 100 μL/well in a refrigerator set to 4° C. for 2 h. Anti-human B7H3 reference antibody enoblituzumab (MacroGeneics) was used as a positive control. Human IgG1 isotype antibody was used as a negative control. After washing the cells with 1×DPBS/1% BSA, Alexa 647 goat anti-human antibody (diluted in a 1:500 ratio in 1×DPBS/1% BSA) was added. The cells were incubated in a refrigerator set to 4° C. for 1 h in the dark. The cells were then washed once and resuspended in 1×DPBS/1% BSA at 37° C. for 2 h. […] The mean fluorescence intensity (MFI) of the cells was measured and analyzed by operetta CLS. EC50 values were calculated by four-parameter non-linear regression analysis using GraphPad Prism 7 software.

Assay [3] has as its target T2, human 4IgB7H3 (Homo sapiens, UniProt Q5ZPR3).
T2 construct: Uniprot ID: Q5ZPR3, amino acids 29-461; 6xHis (C); made in house; host or cells: Expi293F
T2 sequence (Q5ZPR3 29-461): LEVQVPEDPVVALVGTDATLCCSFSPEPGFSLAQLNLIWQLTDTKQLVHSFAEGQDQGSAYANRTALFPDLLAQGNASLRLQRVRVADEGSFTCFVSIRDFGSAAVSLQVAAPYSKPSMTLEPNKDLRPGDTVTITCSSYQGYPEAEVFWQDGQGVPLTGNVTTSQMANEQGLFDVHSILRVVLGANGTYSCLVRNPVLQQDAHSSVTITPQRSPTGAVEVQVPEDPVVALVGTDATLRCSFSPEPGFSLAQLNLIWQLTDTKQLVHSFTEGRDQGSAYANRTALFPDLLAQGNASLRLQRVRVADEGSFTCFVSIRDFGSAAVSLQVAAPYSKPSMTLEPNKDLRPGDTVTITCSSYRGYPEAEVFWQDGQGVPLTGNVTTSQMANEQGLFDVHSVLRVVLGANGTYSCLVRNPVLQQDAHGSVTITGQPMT
Briefly: SPR binding affinity for human 4IgB7H3 (Biacore 8K). To be noted: analyte human 4IgB7H3. The protocol: The affinity of antibodies for human 4IgB7H3 was determined using surface plasmon resonance (SPR). The affinity of antibodies for human 4IgB7H3 was determined by Biacore 8K. An activator was prepared by mixing 400 mM EDC and 100 mM NHS (GE) immediately prior to injection into the channel. The CM5 sensor chip was activated for 420 seconds with the activator. Goat anti-human Fc IgG (30 μg/mL in 10 mM NaAc, pH 4.5) was then injected into the channel at a flow rate of 10 μL/min for 420 seconds. The chip was deactivated by 1 M ethanolamine hydrochloric acid. The antibodies diluted in running buffer (1×HBS-EP+) were injected into the channel at a flow rate of 10 μL/min for 30 seconds. Seven concentrations (100 nM, 50 nM, 25 nM, 12.5 nM, 6.25 nM, […], and 1.563 nM) of analyte human 4IgB7H3 were injected sequentially into the channel at a flow rate of 30 μL/min for an association phase of 180 seconds, followed by dissociation of 3600 seconds. Glycine (10 mM, pH 1.5) was injected as regeneration buffer after the dissociation phase.
The sensorgrams for the reference channel and the buffer channel were subtracted from the test sensorgrams. The experimental data were fitted with a 1:1 binding model. The molecular weight of the human 4IgB7H3 used in the calculation was 47.8 kDa.
as §2
A general note: Surface plasmon resonance follows binding to a sensor surface in real time, without labels.

Assay [4] relates to cynomolgus monkey B7H3. Nature of the assay: FACS binding to cynomolgus monkey B7H3-transfected stable cell pool. On the procedure:
A cell pool expressing cynomolgus monkey B7H3 was generated. Briefly, FlipinCHO cells were transfected with a pcDNA5/pOG44 expression vector containing full-length cynomolgus monkey B7H3 using Lipofectamine 2000 transfection kit (Invitrogen, 11668027) according to the manufacturer's protocol. At 48 h post-transfection, the cells were subcultured into a selective medium (F12 containing 10% FBS and 600 μg/mL hygromycin B) in a T75 flask. After two or three passages of selection, a cell pool stably and highly expressing cynomolgus monkey B7H3 (WBP3XX088-FlpinCHO.cProl.pool) was obtained by hygromycin B selection and BD FACSMelody™ cell sorting.
FACS was used to detect the binding of antibodies to cynomolgus monkey B7H3. FlpinCHO cells were transfected with cynomolgus monkey B7H3 (W3XX088-FlpinCHO.cProl.pool) (1×10^5 cells/well), and the transfected cells were incubated with various concentrations of antibodies (3.16-fold serially diluted with 1×DPBS/1% BSA from 50 nM to 0.0005 nM) in a volume of 100 μL/well in a refrigerator set to 4° C. for 1 h. Anti-human B7H3 reference antibody enoblituzumab (MacroGeneics) was used as a positive control. […] The mean fluorescence intensity (MFI) of the cells was measured by a flow cytometry and analyzed by FlowJo. EC50 values were calculated by four-parameter non-linear regression analysis using GraphPad Prism 7 software.
On the technique in general: Flow cytometry measures light scatter and fluorescence of single cells or particles in a stream.

Assay [5] relates to cynomolgus monkey B7H3. Briefly: SPR binding affinity for cynomolgus monkey B7H3 (Biacore 8K). Conditions: analyte cynomolgus monkey B7H3. The protocol:
as §1, with “cynomolgus monkey B7H3” for “human 2IgB7H3”, “Fe” for “Fc”, “Seven concentrations (500 nM, 250 nM, 125 nM, 62.5 nM, 31.25 nM, 15.625 nM, and 7.813 nM) of analyte human 2IgB7H3 were injected sequentially into the channel at a flow rate of 30 μL/min for an association phase of 120 seconds, followed by dissociation of 300 seconds.” left out
The sensorgrams for the reference channel and the buffer channel were subtracted from the test sensorgrams. The experimental data for 6 analyte concentrations (50 nM, 25 nM, 12.5 nM, 6.25 nM, 3.125 nM, and 1.563 nM) were fitted with a 1:1 binding model. The molecular weight of the cynomolgus monkey B7H3 used in the calculation was 49 kDa.
as §2

Assay [6] has as its target T3, human B7H3 (Homo sapiens, UniProt Q5ZPR3).
T3 construct: MCF-7 cells expressing human full-length B7H3; host or cells: MCF-7
T3 sequence (Q5ZPR3 29-534): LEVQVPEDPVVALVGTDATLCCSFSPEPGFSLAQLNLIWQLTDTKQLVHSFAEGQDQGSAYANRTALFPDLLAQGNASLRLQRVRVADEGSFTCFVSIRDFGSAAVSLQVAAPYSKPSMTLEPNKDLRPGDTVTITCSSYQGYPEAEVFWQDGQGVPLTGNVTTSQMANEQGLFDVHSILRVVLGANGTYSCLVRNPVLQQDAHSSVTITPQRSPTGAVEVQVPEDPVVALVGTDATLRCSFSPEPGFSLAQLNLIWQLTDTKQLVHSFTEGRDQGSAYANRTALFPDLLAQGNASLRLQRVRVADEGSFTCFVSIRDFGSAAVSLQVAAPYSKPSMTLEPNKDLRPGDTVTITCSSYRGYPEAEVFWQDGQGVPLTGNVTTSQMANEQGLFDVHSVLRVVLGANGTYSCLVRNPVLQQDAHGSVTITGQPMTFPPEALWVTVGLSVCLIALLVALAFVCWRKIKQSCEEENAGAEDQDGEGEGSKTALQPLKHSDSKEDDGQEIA
Nature of the assay: FACS binding to human B7H3-expressing cells MCF-7. The protocol: FACS was used to detect the binding of antibodies to human B7H3. This method allows quantitative analysis and identification of specific molecules expressed on the surface of living cells. Unlabeled cells were used as a control to set a threshold before the assay, and the percentage change for each group that exceeded the fluorescence intensity threshold was analyzed. MCF-7 cells expressing human full-length B7H3 (1×10^5 cells/well) were incubated with various concentrations of antibodies (3.16-fold serially diluted with 1×DPBS/1% BSA from 50 nM to 0.0005 nM) in a volume of 100 μL/well in a refrigerator set to 4° C. for 1 h. Anti-human B7H3 reference antibody enoblituzumab (MacroGeneics) was used as a positive control. Human IgG1 isotype antibody was used as a negative control. After washing the cells with 1×DPBS/1% BSA, Alexa 647 goat anti-human antibody (diluted in a 1:500 ratio in 1×DPBS/1% BSA) was added. The cells were incubated in a refrigerator set to 4° C. for 0.5 h in the dark. The mean fluorescence intensity (MFI) of the cells was measured by a flow cytometry and analyzed by FlowJo. EC50 values were calculated by four-parameter non-linear regression analysis using GraphPad Prism 7 software.

B1: Enoblituzumab (MacroGenics): anti-B7H3 benchmark antibody, sequences SEQ ID NOs: 117 and 119 of US20120294796A1 (antibody, chains of the INN, looked up)
heavy: EVQLVESGGGLVQPGGSLRLSCAASGFTFSSFGMHWVRQAPGKGLEWVAYISSDSSAIYYADTVKGRFTISRDNAKNSLYLQMNSLRDEDTAVYYCGRGRENIYYGSRLDYWGQGTTVTVSSASTKGPSVFPLAPSSKSTSGGTAALGCLVKDYFPEPVTVSWNSGALTSGVHTFPAVLQSSGLYSLSSVVTVPSSSLGTQTYICNVNHKPSNTKVDKRVEPKSCDKTHTCPPCPAPELVGGPSVFLLPPKPKDTLMISRTPEVTCVVVDVSHEDPEVKFNWYVDGVEVHNAKTKPPEEQYNSTLRVVSVLTVLHQDWLNGKEYKCKVSNKALPAPIEKTISKAKGQPREPQVYTLPPSREEMTKNQVSLTCLVKGFYPSDIAVEWESNGQPENNYKTTPLVLDSDGSFFLYSKLTVDKSRWQQGNVFSCSVMHEALHNHYTQKSLSLSPG
light: DIQLTQSPSFLSASVGDRVTITCKASQNVDTNVAWYQQKPGKAPKALIYSASYRYSGVPSRFSGSGSGTDFTLTISSLQPEDFATYYCQQYNNYPFTFGQGTKLEIKRTVAAPSVFIFPPSDEQLKSGTASVVCLLNNFYPREAKVQWKVDNALQSGNSQESVTEQDSKDSTYSLSSTLTLSKADYEKHKVYACEVTHQGLSSPVTKSFNRGEC
Take B1: the figures for the ka in assay [1], in assay [3] and in assay [5] were 64400 M⁻¹ s⁻¹, 124000 M⁻¹ s⁻¹ and 185000 M⁻¹ s⁻¹, respectively. For the same molecule, the kd came to 0.0168 s⁻¹ in assay [1], 0.000126 s⁻¹ in assay [3] and 8.14e-05 s⁻¹ in assay [5]. Besides, the “Antibody internalization Maximum MFI” value in assay [2] is 39777. Moreover, the “Maximum MFI” value is 19700 in assay [4] and 4644 in assay [6].

Source of the values: patent US20260224723A1, “ANTI-B7H3 ANTIBODY-DRUG CONJUGATE AND USE THEREOF” (Duality Biologics (Suzhou) Co., Ltd., priority 2022, published 2026).
